Patent US11499162B2, “Plants having increased tolerance to herbicides” (BASF SE, priority 2016, dated 2022)

B1: D328G: mutated TriA variant of SEQ ID NO: 2 (protein)
chain: MQTLSIQHGTLVTMDQYRRVLGDSWVHVQDGRIVALGVHAESVPPPADRVIDARGKVVLPGFINAHTHVNQILLRGGPSHGRQLYDWLFNVLYPGQKAMRPEDVAVAVRLYCAEAVRSGITTINDNADSAIYPGNIEAAMAVYGEVGVRVVYARMFFDRMDGRIQGYVDALKARSPQVELCSIMEETAVAKDRITALSDQYHGTAGGRISVWPAPAITPAVTVEGMRWAQAFARDRAVMWTLHMAESDHDERLHWMSPAEYMECYGLLDERLQVAHCVYFDRKDVRLLHRHNVKVASQVVSNAYLGSGVAPVPEMVERGMAVGIGTDGGNCNDSVNMIGDMKFMAHIHRAVHRDADVLTPEKILEMATIDGARSLGMDHEIGSIETGKRADLILLDLRHPQTTPHHHLAATIVFQAYGNEVDTVLIDGNVVMENRRLSFLPPERELAFLEEAQSRATAILQRANMVANPAWRSL
modifications: Pseudomonas
B2: F89LL92AY93L: mutated TriA variant of SEQ ID NO: 2 (protein)
chain: MQTLSIQHGTLVTMDQYRRVLGDSWVHVQDGRIVALGVHAESVPPPADRVIDARGKVVLPGFINAHTHVNQILLRGGPSHGRQLYDWLLNVALPGQKAMRPEDVAVAVRLYCAEAVRSGITTINDNADSAIYPGNIEAAMAVYGEVGVRVVYARMFFDRMDGRIQGYVDALKARSPQVELCSIMEETAVAKDRITALSDQYHGTAGGRISVWPAPAITPAVTVEGMRWAQAFARDRAVMWTLHMAESDHDERLHWMSPAEYMECYGLLDERLQVAHCVYFDRKDVRLLHRHNVKVASQVVSNAYLGSGVAPVPEMVERGMAVGIGTDDGNCNDSVNMIGDMKFMAHIHRAVHRDADVLTPEKILEMATIDGARSLGMDHEIGSIETGKRADLILLDLRHPQTTPHHHLAATIVFQAYGNEVDTVLIDGNVVMENRRLSFLPPERELAFLEEAQSRATAILQRANMVANPAWRSL
modifications: Pseudomonas
B3: F89AL92AY93L: mutated TriA variant of SEQ ID NO: 2 (protein)
chain: MQTLSIQHGTLVTMDQYRRVLGDSWVHVQDGRIVALGVHAESVPPPADRVIDARGKVVLPGFINAHTHVNQILLRGGPSHGRQLYDWLANVALPGQKAMRPEDVAVAVRLYCAEAVRSGITTINDNADSAIYPGNIEAAMAVYGEVGVRVVYARMFFDRMDGRIQGYVDALKARSPQVELCSIMEETAVAKDRITALSDQYHGTAGGRISVWPAPAITPAVTVEGMRWAQAFARDRAVMWTLHMAESDHDERLHWMSPAEYMECYGLLDERLQVAHCVYFDRKDVRLLHRHNVKVASQVVSNAYLGSGVAPVPEMVERGMAVGIGTDDGNCNDSVNMIGDMKFMAHIHRAVHRDADVLTPEKILEMATIDGARSLGMDHEIGSIETGKRADLILLDLRHPQTTPHHHLAATIVFQAYGNEVDTVLIDGNVVMENRRLSFLPPERELAFLEEAQSRATAILQRANMVANPAWRSL
modifications: Pseudomonas
B4: D328A: mutated TriA variant of SEQ ID NO: 2 (protein)
chain: MQTLSIQHGTLVTMDQYRRVLGDSWVHVQDGRIVALGVHAESVPPPADRVIDARGKVVLPGFINAHTHVNQILLRGGPSHGRQLYDWLFNVLYPGQKAMRPEDVAVAVRLYCAEAVRSGITTINDNADSAIYPGNIEAAMAVYGEVGVRVVYARMFFDRMDGRIQGYVDALKARSPQVELCSIMEETAVAKDRITALSDQYHGTAGGRISVWPAPAITPAVTVEGMRWAQAFARDRAVMWTLHMAESDHDERLHWMSPAEYMECYGLLDERLQVAHCVYFDRKDVRLLHRHNVKVASQVVSNAYLGSGVAPVPEMVERGMAVGIGTDAGNCNDSVNMIGDMKFMAHIHRAVHRDADVLTPEKILEMATIDGARSLGMDHEIGSIETGKRADLILLDLRHPQTTPHHHLAATIVFQAYGNEVDTVLIDGNVVMENRRLSFLPPERELAFLEEAQSRATAILQRANMVANPAWRSL
modifications: Pseudomonas

format: biochemical; conditions: pH 7.2
In short: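 Expression: BL21(DE3) Gold, pET24d N-His, pGro7, 0.1 mM IPTG, 25° C, 20 h. Reaction: 25 mM Na phosphate pH 7.2, substrate 1 nM to 10 nM, 30° C. Analysis: UPLC-HR-MS; % degradation vs empty vector.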

Compared with B1, B2 is higher in “Degradation in % of 6-cyclopentyl-N4-(2,3,4,5,6-pentafluorophenyl)-1,3,5-triazine-2,4-diamine” value: 19% for the first, 35% for the second.

Compared with B3, B4 is lower in “Degradation in % of 6-cyclopentyl-N4-(2,3,4,5,6-pentafluorophenyl)-1,3,5-triazine-2,4-diamine” value: 99% for the first, 95% for the second.

B1 and B2 are the same in “Degradation in % of Melamine” value: 0% for the first, 0% for the second.

First: B3
Second: B4
The “Degradation in % of Melamine” value of the first is higher: 7% for the first, 5% for the second.
